{"source": "patent US20150065421A1", "about": "“BASAL INSULIN THERAPY” (SANOFI, priority 2012, published 2015)", "test_system": "people at high risk for vascular disease with either IFG, IGT, or early type 2 diabetes", "test": "ORIGIN trial: hypoglycemia, weight change and glargine adherence", "format": "in vivo, human", "source_text": "Participants were asked to self-administer daily subcutaneous saline injections and to check their capillary glucose levels during a 10 day run-in period. Adherent participants were then provided with lifestyle advice and randomly allocated to either insulin glargine (Lantus™) or standard approaches to glycaemic control. Participants allocated to insulin glargine who were also taking a thiazolidinedione stopped that medication at the time of randomization; otherwise the insulin glargine was added to their glycemic regimen. These participants were instructed to inject insulin glargine in the evening, starting at 2, 4 or 6 units (depending on their initial FPG) and to increase the dose at least once per week targeting a self-measured FPG level ≦5.3 mmol/l (95 mg/dl) and ≧4 mmol/l (72 mg/dl). […] If participants developed uncontrolled hyperglycemia, investigators were permitted to add rapid-acting insulin. No other glucose-lowering medication could be added or increased. FPG levels were measured in the local laboratory at every visit and the results were regularly reviewed along with the dose of insulin to ensure that insulin was being effectively trirated. People not diagnosed with diabetes by the time of the penultimate study visit down-titrated insulin glargine by 10 units per day and stopped any metformin that was prescribed.\nOutcomes and other data were collected at scheduled study visits at 0.5, 1, 2, and 4 months after randomization and every 4 months thereafter. Weight, waist and hip circumference were measured annually. HbA1c levels were assayed in local laboratories at every visit for the first year and then annually in people without diabetes and every 4 months for people with diabetes. A first morning urine collection was sent centrally and assayed for creatinine and albumin at baseline, 2 yrs and study end.\nThere were 2 co-primary composite CV outcomes. The first was CV death, non-fatal MI or non-fatal stroke, and the second was a composite of any of these events or a revascularization procedure or hospitalization for heart failure. Secondary outcomes included a composite microvascular outcome comprising a doubling of serum creatinine from baseline, progression of albuminuria category from normoalbuminuria or microalbuminuria to microalbuminuria or overt nephropathy, renal replacement therapy, renal death, retinal photocoagulation or vitrectomy for retinopathy. They also included new type 2 diabetes developing by the time of the 1st post-trial oral glucose tolerance test in participants without baseline diabetes, and all-cause mortality. Other outcomes included incident cancers, CV hospitalizations, and angina. Cardiovascular and cancer outcomes were reviewed by adjudicators masked to treatment allocation. Episodes of hypoglycaemia since the prior visit were recorded at each visit. Symptomatic hypoglycemia was classified as confirmed if a concomitant recorded capillary glucose level was <3 mmol/L (54 mg/dL). Severe hypoglycemia was defined as hypoglycemia that required assistance plus either prompt recovery with glucose or glucagon or a documented capillary glucose ≦2.0 (36 mg/dL). New diabetes was diagnosed if 2 consecutive FPG levels within a 4-month period were ≧7 mM (126 mg/dL) during the trial; a diagnosis of diabetes was made by a physician and a pharmacologic antidiabetic agent was being taken and there was evidence of either a FPG ≧7 mM (126 mg/dL) or any glucose value ≧11.1 mM (200 mg/dL); either 1 or more capillary glucose levels were ≧11.1 mM (200 mg/dl) and a lab-measured FPG was ≧7 mmol/l (126 mg/dl) or a lab measured random glucose level was ≧11.1 mM (200 mg/dl) during down-titration of glargine insulin; or any FPG was ≧7 mM (126 mg/dl) or 2 hour plasma glucose was ≧11.1 mM (200 mg/dl) during the first oral glucose tolerance test."}
{"substance": "(Gly A21) Arg (B31) Arg (B32) human insulin [insulin glargine]", "values": [{"measurement": "more severe hypoglycemia episodes than standard care", "setting": "absolute risk difference", "result": "approximately 0.7 per 100 person-years"}, {"measurement": "more suspected or confirmed hypoglycemia episodes than standard care", "setting": "absolute risk difference", "result": "~11", "unit": "per 100 person-years"}, {"measurement": "annual incidence of severe hypoglycemia", "setting": "basal insulin in ORIGIN", "result": 1.00, "unit": "%"}, {"measurement": "Reason Stopped: N Hyperglycemia (%), Ever Off", "setting": "first time off", "result": "4 (0.15) N (%)"}, {"measurement": "Reason Stopped: N Hypoglycemia (%), Ever Off", "setting": "first time off", "result": "218 (8.2) N (%)"}, {"measurement": "Reason Stopped: N Wt Gain (%), Ever Off", "setting": "first time off", "result": "4 (0.15) N (%)"}, {"measurement": "risk of hypoglycemia relative to standard care participants", "setting": "higher", "result": "approximately 3 fold"}, {"measurement": "Any Symptomatic Hypoglycemia, Mean Number of Episodes/yr", "setting": "in vivo", "result": "2.6 (4.1) Episodes/yr"}, {"measurement": "Any Symptomatic Hypoglycemia, No Episodes During Follow-up (%)", "setting": "in vivo", "result": "2691 (43.0) N (%)"}, {"measurement": "Confirmed Symptomatic Hypoglycemia, Mean Number of Episodes/yr", "setting": "in vivo", "result": "1.3 (2.3) Episodes/yr"}, {"measurement": "No Confirmed Episodes During follow-up (%)", "setting": "in vivo", "result": "3652 (58.3) N (%)"}, {"measurement": "incidence of the first episode of any (confirmed or unconfirmed) hypoglycemia", "setting": "insulin glargine group", "result": 16.73, "unit": "per 100 person-years"}, {"measurement": "mean weight gain", "setting": "insulin glargine group", "result": 1.6, "unit": "kg"}, {"measurement": "participants without any episode of symptomatic hypoglycemia during the entire trial (number)", "setting": "insulin glargine group", "result": 2691, "unit": "participants"}, {"measurement": "incidence of the first episode of nonsevere symptomatic hypoglycemia confirmed by a self-measured glucose level 3 mmol/l (54 mg/dl)", "setting": "insulin glargine group, P<0.001", "result": 9.81, "unit": "per 100 person-years"}, {"measurement": "incidence of the first episode of severe hypoglycemia", "setting": "insulin glargine group, P<0.001 vs standard care", "result": 1.00, "unit": "per 100 person-years"}, {"measurement": "participants without any episode of symptomatic hypoglycemia during the entire trial (percent)", "setting": "insulin glargine group, median 6.2 years", "result": 43, "unit": "%"}, {"measurement": "Reason Stopped: N Hyperglycemia (%), Permanently Off", "setting": "last time off and stayed off", "result": "2 (0.2) N (%)"}, {"measurement": "Reason Stopped: N Hypoglycemia (%), Permanently Off", "setting": "last time off and stayed off", "result": "42 (4.0) N (%)"}, {"measurement": "Reason Stopped: N Wt Gain (%), Permanently Off", "setting": "last time off and stayed off", "result": "4 (0.4) N (%)"}, {"measurement": "Severe Hypoglycemia, Total Episodes During Follow-up", "setting": "median follow-up 6.2 years", "result": 457}, {"measurement": "Any Symptomatic Hypoglycemia, ≧1 Episode (N/100py)", "setting": "nonsevere", "result": "3573 (16.73) N/100py"}, {"measurement": "Confirmed Symptomatic Hypoglycemia, ≧1 Confirmed Episode (N/100py)", "setting": "nonsevere, self-measured glucose ≦3 mmol/l (54 mg/dl)", "result": "2612 (9.81) N/100py"}, {"measurement": "Severe Hypoglycemia, ≧1 Episode (N/100py)", "setting": "participants (rate per 100 person-years), P<0.001 vs standard care", "result": "359 (1.00) N/100py"}, {"measurement": "1 or more nonsevere hypoglycemic episodes confirmed by glucose <3 mmol/l (<54 mg/dl)", "setting": "people with diabetes at enrollment", "result": 10.5, "unit": "per 100 person-years"}, {"measurement": "1 or more nonsevere hypoglycemic episodes confirmed by glucose <3 mmol/l (<54 mg/dl)", "setting": "people without diabetes at enrollment", "result": 5.7, "unit": "per 100 person-years"}]}
